Results as given in patent publication US20040077031.

System: MAS (methionine-alanine-serine) trimeric peptide

In the case of “recombinant human methionine aminopeptidase type 1 (MetAP1) with N-terminal histidine tag”, the “enzymatic cleavage of peptide substrate” value is reported as “showed enzymatic activity in cleaving a tripeptide MAS substrate”.
